B1: NR2F2 (parent)
chain: VAHVESLQEKSQCALEEYVRSQYP

Variants of: B1
Test: protein stability index of a GFP-peptide fusion (GPS, HEK-293T) (PSI 1-6); higher = more stable
Settings: c terminus: a fixed tail appended
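Further: lentivirally expressed fusions sorted by FACS into six bins by GFP to DsRed ratio, PSI derived from sequencing read proportions per bin multiplied by bin number.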

Protein stability index: each site, then its substitutions
A14: Y 3.19, T 3.92, Q 3.57, E 4.68, L 2.88, F 2.76, N 4.22, M 3.81, D 4.79, V 3.83, H 4.08, C 3.41, S 3.78
H3: M 3.36, C 3.42, G 3.75, Q 3.81, I 2.55, A 3.48, T 3.86, P 4.09, S 3.68, E 4.95, K 3.43
Q8: H 3.49, K 3.88, S 3.48, Y 2.73, T 3.53, I 2.83, G 3.56, P 3.45, M 2.98, W 2.27, N 3.75, R 3.68, F 2.48, C 2.99, D 3.71
L15: G 4.89, W 2.33, P 4.88, T 4.91, D 4.88, F 3.48, N 4.42, H 4.35, E 5.03, Q 4.73, S 4.33, C 4.01, M 3.84, K 4.3, Y 4.04, V 4.51
P24: A 3.73, E 3.94, L 3.15, D 4.29, N 3.94, Q 3.35, I 3.19, S 3.47, W 2.45, V 3.06, C 3.14, K 3.93
C13: W 3.54, V 4.05, Q 4.55, K 3.99, L 3.92, I 3.45, Y 3.83, E 4.91, S 4.24, T 4.28, G 4, D 4.36, N 4.47, F 3.58, R 4.23
E5: K 2.96, L 2.37, D 3.18, P 3.04, T 2.93, A 3.27, W 2.14, C 1.97, Y 2.13, R 2.63, S 2.53, Q 3.52, N 3.38, M 2.69
V19: W 3.06, S 4.08, T 3.67, H 4.24, A 3.49, N 4.13, K 4.04, E 5.1, G 3.39, M 3.65, R 3.85, L 3.17, Y 3.56, I 3.63, Q 4.03, P 4.73
S6: Q 3.69, T 3.55, P 2.94, W 2.77, F 2.71, R 3.67, A 4.04, Y 2.98, V 3.33, M 3.07, L 3.22, I 3.07, G 3.24, K 4.12
E17: K 3.81, S 3.36, D 3.44, G 3.45, R 3.62, V 2.26, M 2.58, L 2.49, N 3.08, T 3.62, Q 3.27, Y 2.11
E9: N 3.05, F 2.13, L 2.64, C 1.85, P 2.68, G 2.89, T 3.11, A 2.55, Q 2.62, R 2.53, S 2.73, I 1.83, D 3.59, Y 2.77, K 3.11
L7: V 4.05, P 4.43, I 3.82, E 4.77, K 3.98, D 4.29, Q 4.08, S 4.29, M 3.95, H 3.71, Y 3.45, T 4.13, C 3.81, W 3.03, F 3.27
S21: L 3.46, Y 2.89, D 3.77, F 2.56, W 2.24, R 3.13, C 3.38, K 3.15, V 3.34, I 3.02, E 3.77, A 3.25, M 3.33
Y23: P 4.15, K 3.98, E 4.71, M 3.46, C 4.13, F 3.43, H 3.88, W 2.7, A 4.1, T 4.01, V 3.76, R 4.51, D 4.53
S11: C 3.37, Y 2.36, T 3.53, E 4.36, F 1.78, G 4.07, H 3.59, M 2.54, K 3.41, N 3.88, A 4.05, R 3.12, L 3.2, Q 2.97
Y18: H 4.2, V 3.75, C 3.51, G 4.33, F 3.33, S 4.25, W 3.66, A 3.97, M 3.93, L 3.01, T 4.42, K 3.94, I 3.55, N 3.91, P 4.43, E 4.7, D 5.05
K10: G 3.81, M 2.97, S 3.76, D 4.32, P 3.37, L 3.07, F 2.08, N 3.98, V 3.49, Q 3.83, Y 2.63, C 2.54, W 2.96, H 3.7, I 2.58
A2: H 2.98, C 2.54, R 3.55, G 3.53, Q 3.33, W 2.29, F 2.59, S 3.87, I 2.56, N 3.1, L 2.85
V4: M 3.24, F 2.85, G 3.94, S 4.11, N 4.12, A 4.11, E 4.37, C 3.81, D 4.06, W 3.28, P 3.54, H 4.06
Q12: T 2.88, V 2.83, G 3.7, F 2.86, H 2.88, W 2.64, E 4.6, Y 2.55, R 3.77, S 2.77, M 2.99, C 2.45, P 3.12
R20: K 4.18, N 3.14, W 2.56, D 4.71, L 2.67, C 3.87, Q 4.3, A 3.49, S 3.65, P 4.16, F 2.71, M 3.19, G 4.17
Q22: P 3.3, K 3.87, I 2.6, D 4.15, C 3.19, R 3.05, S 3.4, M 2.87, G 3.82, Y 3.34, E 4.31, F 2.44, L 3.17
E16: Q 3.68, S 3.37, D 3.62, C 3.63, L 3.3, F 2.35, W 2.23, A 3.59, V 3.36, H 3.16, Y 2.11, R 3.65, M 2.89, N 3.63, I 3.7, T 3.29, K 3.7, G 3.21
V1: L 3.5, R 3.39, Y 3.39, Q 3.89, G 3.79, T 4.19, C 2.66, W 3.12, E 4.24, K 3.66, M 3.89, N 4.01, F 3.03, I 3.52
